B1: Vacuolar protein-sorting-associated protein 25 (Homo sapiens), Q9BRG1 (parent)
chain: MAMSFEWPWQYRFPPFFTLQPNVDTRQKQLAAWCSLVLSFCRLHKQSSMTVMEAQESPLFNNVKLQRKLPVESIQIVLEELRKKGNLEWLDKSKSSFLIMWRRPEEWGKLIYQWVSRSGQNNSVFTLYELTNGEDTEDEEFHGLDEATLLRALQALQQEHKAEIITVSDGRGVKFF
partner: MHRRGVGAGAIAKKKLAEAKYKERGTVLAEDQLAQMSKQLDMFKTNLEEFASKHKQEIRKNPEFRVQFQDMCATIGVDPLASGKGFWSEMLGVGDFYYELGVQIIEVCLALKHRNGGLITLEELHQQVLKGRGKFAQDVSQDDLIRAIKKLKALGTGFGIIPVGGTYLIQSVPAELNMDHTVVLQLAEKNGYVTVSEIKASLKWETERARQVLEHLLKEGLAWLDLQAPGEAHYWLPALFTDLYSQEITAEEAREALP
B2: Vacuolar protein-sorting-associated protein 25 (Homo sapiens), Q9BRG1 (parent)
chain: B1 chain
partner: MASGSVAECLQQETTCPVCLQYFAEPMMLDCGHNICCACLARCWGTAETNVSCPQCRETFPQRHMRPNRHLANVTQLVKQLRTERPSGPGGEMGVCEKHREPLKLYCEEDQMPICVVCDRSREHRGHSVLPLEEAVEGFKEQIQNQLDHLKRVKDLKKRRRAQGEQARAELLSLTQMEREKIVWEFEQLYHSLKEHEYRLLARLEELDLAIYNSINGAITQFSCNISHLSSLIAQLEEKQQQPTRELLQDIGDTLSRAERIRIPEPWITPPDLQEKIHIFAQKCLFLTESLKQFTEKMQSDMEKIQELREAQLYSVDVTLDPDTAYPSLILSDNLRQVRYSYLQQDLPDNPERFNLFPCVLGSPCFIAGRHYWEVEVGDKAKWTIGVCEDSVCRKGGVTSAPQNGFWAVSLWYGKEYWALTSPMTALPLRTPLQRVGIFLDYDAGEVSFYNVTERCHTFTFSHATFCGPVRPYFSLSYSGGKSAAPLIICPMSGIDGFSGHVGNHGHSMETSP
B3: Vacuolar protein-sorting-associated protein 25 (Homo sapiens), Q9BRG1 (parent)
chain: B1 chain
partner: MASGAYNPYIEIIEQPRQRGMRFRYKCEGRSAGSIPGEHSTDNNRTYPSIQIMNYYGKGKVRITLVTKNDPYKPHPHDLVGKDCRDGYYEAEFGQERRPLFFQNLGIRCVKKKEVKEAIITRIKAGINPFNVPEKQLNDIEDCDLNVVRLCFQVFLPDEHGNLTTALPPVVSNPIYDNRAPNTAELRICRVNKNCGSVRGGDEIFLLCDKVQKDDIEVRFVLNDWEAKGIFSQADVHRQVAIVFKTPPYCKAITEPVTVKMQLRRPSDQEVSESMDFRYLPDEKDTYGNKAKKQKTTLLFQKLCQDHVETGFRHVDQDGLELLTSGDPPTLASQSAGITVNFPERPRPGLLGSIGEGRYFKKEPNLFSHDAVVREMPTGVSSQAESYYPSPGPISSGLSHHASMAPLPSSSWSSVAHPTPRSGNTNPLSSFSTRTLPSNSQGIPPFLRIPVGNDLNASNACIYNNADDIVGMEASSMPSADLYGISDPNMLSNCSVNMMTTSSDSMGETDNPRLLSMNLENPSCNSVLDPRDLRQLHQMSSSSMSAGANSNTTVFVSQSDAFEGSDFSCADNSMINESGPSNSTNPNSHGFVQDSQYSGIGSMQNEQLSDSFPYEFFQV
B4: Vacuolar protein-sorting-associated protein 25 (Homo sapiens), Q9BRG1 (parent)
chain: B1 chain
partner: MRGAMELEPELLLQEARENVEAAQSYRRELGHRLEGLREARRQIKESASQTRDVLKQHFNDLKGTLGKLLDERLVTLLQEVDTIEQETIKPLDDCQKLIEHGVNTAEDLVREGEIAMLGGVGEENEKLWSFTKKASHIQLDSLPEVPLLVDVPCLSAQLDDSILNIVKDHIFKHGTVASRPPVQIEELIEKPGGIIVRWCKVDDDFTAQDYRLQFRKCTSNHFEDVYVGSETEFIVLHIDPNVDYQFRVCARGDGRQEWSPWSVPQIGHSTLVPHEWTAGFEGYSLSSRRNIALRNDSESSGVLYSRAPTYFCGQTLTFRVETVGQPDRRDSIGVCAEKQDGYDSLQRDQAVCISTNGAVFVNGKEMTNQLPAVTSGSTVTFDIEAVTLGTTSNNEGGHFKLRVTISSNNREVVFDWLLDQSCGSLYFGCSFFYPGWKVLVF
B5: Kinetochore protein NDC80 homolog (Homo sapiens), O14777 (parent)
chain: MKRSSVSSGGAGRLSMQELRSQDVNKQGLYTPQTKEKPTFGKLSINKPTSERKVSLFGKRTSGHGSRNSQLGIFSSSEKIKDPRPLNDKAFIQQCIRQLCEFLTENGYAHNVSMKSLQAPSVKDFLKIFTFLYGFLCPSYELPDTKFEEEVPRIFKDLGYPFALSKSSMYTVGAPHTWPHIVAALVWLIDCIKIHTAMKESSPLFDDGQPWGEETEDGIMHNKLFLDYTIKCYESFMSGADSFDEMNAELQSKLKDLFNVDAFKLESLEAKNRALNEQIARLEQEREKEPNRLESLRKLKASLQGDVQKYQAYMSNLESHSAILDQKLNGLNEEIARVELECETIKQENTRLQNIIDNQKYSVADIERINHERNELQQTINKLTKDLEAEQQKLWNEELKYARGKEAIETQLAEYHKLARKLKLIPKGAENSKGYDFEIKFNPEAGANCLVKYRAQVYVPLKELLNETEEEINKALNKKMGLEDTLEQLNAMITESKRSVRTLKEEVQKLDDLYQQKIKEAEEEDEKCASELESLEKHKHLLESTVNQGLSEAMNELDAVQREYQLVVQTTTEERRKVGNNLQRLLEMVATHVGSVEKHLEEQIAKVDREYEECMSEDLSENIKEIRDKYEKKATLIKSSEE
partner: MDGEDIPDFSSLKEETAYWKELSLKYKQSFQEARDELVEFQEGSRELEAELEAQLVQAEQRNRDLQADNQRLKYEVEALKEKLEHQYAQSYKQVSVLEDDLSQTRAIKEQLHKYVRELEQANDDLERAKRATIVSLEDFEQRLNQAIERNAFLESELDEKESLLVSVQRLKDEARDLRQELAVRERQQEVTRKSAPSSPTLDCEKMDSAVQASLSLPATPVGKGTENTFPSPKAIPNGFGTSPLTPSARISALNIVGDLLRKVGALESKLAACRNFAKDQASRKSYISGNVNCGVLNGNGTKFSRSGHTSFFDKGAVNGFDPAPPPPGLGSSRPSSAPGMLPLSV
B6: Kinetochore protein NDC80 homolog (Homo sapiens), O14777 (parent)
chain: B5 chain
partner: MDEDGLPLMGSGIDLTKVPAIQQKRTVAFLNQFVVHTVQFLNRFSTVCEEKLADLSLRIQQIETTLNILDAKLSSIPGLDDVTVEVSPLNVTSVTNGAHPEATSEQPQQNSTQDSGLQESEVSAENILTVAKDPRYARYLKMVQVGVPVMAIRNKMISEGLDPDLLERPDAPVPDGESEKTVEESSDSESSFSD
B7: Kinetochore protein NDC80 homolog (Homo sapiens), O14777 (parent)
chain: B5 chain

Variants of: B1
Conditions: with snf8_human SNF8, Q96H20

Row | Variant | effect of a mutation on the interaction
1 | P58Q | with no effect

Variants of: B2
Conditions: with tri27_human TRIM27, P14373

Row | Variant | effect of a mutation on the interaction
2 | P58Q | disrupting interaction strength

Variants of: B3
Conditions: with rel_human REL

Row | Variant | effect of a mutation on the interaction
3 | P58Q | disrupting interaction strength

Variants of: B4
Conditions: with crlf3_human CRLF3, Q8IUI8

Row | Variant | effect of a mutation on the interaction
4 | P58Q | with no effect

Variants of: B5
Conditions: with ndel1_human NDEL1, Q9GZM8

Row | Variant | effect of a mutation on the interaction
5 | K288E | with no effect

Variants of: B6
Conditions: with wasc3_human WASHC3, Q9Y3C0

Row | Variant | effect of a mutation on the interaction
6 | K288E | with no effect

Variants of: B7
Conditions: with tnip1_human TNIP1, Q15025
tnip1_human TNIP1, Q15025, sequence (Q15025 whole entry): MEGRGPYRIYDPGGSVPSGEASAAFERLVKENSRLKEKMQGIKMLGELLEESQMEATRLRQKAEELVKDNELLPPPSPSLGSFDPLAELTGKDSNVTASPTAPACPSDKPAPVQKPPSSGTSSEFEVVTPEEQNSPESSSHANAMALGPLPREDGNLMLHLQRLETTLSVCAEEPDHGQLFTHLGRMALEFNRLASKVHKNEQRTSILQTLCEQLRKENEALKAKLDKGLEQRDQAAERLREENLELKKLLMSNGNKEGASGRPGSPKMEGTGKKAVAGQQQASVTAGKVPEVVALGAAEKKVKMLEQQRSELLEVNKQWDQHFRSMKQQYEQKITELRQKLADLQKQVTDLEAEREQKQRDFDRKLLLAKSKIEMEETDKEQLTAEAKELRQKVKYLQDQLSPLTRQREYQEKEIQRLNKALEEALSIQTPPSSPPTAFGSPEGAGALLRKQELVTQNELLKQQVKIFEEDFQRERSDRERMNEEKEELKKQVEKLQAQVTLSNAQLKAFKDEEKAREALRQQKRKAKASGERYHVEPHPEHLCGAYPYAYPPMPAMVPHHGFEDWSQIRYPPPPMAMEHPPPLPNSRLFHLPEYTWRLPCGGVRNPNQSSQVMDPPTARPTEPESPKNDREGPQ

Row | Variant | effect of a mutation on the interaction
7 | K288E | with no effect

Variants of: B7
Conditions: with amol2_human AMOTL2, Q9Y2J4
amol2_human AMOTL2, Q9Y2J4, sequence (Q9Y2J4 whole entry): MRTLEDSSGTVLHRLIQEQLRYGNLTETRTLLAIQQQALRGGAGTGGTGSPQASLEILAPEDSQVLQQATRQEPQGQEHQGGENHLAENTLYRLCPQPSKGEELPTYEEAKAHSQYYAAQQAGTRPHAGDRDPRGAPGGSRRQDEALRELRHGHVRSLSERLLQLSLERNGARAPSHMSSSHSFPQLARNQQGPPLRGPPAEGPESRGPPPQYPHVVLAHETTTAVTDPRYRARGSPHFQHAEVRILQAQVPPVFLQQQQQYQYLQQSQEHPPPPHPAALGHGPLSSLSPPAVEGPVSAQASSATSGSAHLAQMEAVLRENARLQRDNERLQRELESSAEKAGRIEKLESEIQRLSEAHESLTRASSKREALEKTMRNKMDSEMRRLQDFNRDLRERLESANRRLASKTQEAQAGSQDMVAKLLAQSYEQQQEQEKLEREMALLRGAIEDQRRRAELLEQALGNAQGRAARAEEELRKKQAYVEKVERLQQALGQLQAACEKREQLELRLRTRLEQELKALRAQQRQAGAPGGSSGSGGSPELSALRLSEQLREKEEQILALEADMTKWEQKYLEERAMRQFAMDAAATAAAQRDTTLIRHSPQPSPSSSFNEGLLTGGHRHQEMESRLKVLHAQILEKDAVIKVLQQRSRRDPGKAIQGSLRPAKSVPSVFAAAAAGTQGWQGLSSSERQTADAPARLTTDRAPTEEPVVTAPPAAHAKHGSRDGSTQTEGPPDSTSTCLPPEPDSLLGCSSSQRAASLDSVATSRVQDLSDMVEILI

Row | Variant | effect of a mutation on the interaction
8 | K288E | with no effect

Variants of: B7
Conditions: with atf4_human ATF4, P18848
atf4_human ATF4, P18848, sequence (P18848 whole entry): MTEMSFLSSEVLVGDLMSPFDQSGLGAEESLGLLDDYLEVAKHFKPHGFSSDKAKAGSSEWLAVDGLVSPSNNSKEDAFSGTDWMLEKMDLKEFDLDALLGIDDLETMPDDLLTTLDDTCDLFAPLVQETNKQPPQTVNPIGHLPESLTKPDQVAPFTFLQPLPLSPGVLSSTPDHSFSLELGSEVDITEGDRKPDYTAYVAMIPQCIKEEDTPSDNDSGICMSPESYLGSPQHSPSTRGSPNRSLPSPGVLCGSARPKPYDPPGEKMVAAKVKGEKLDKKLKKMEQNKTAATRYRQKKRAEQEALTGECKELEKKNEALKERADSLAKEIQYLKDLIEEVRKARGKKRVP

Row | Variant | effect of a mutation on the interaction
9 | K288E | with no effect

Variants of: B7
Conditions: with txlna_human TXLNA

Row | Variant | effect of a mutation on the interaction
10 | K288E | with no effect

— IntAct's records for PubMed 29892012
